Experimental data reported in the DeepSol protein solubility set.

Assay: soluble on expression in E. coli; label from the status in PepcDB or PDB records

| Sequence | soluble on expression in E. coli |
| --- | --- |
| MKMMPSKLQKNKQRLRNDPLNQNKGKPDLNTTLPIRQTASIFKQPVTKVTNHPSNKVKSDPQRMNEQPRQLFWEKRLQGLSASDVTEQIIKTMELPKGLQGVGPGSNDETLLSAVASALHTSSAPITGQVSAAVEKNPAVWLNTSQPLCKAFIVTDEDIRKQEERVQQVRKKLEEALMADILSRAADTEEMDIEMDSGDEALEHHHHHH | soluble |
| MDKKSKLINLLKEVGCIRFGEFILASGKKSNYYIDIKKATTNPEILKLVGEIIAEQIKDEDVKVAGVELGSVPIATAVSIIAQKPLLIVRKKPKDYGTKNKIEGELKEGDKVVIVEDVTTTGGSVLKAVKEIRENGGIVDKVFVVVDRLEGAKENLQKENVELIPLVTVKELQSTQ | soluble |
| MGSSHHHHHHSSGRENLYFQGMPSLTPRCIIVRAGQTEWSKSGQYTGLTDLPLTPYGEGQMLRTGESVFRNNQFLNPDNITYIFTSPRLRARQTVDLVLKPLSDEQRAKIRVVVDDDLREWEYGDYEGMLTREIIELRKSRGLDKERPWNIWRDGCENGETTQQIGLRLSRAIARIQNLHRKHQSEGRASDIMVFAHGHALRYFAAIWFGLGVQKKCETIEEIQNVKSYDDDTVPYVKLESYRHLVDNPCFLLDAGGIGVLSYAHHNIDEPALELAGPFVSPPEEESQHGDV | soluble |
| MSLNYTELEENIKKNNIENVYIMCGFNEKLMKESINKILKKSISQDFESLNYSVFDGNEVEFEDILNACETVPFMSEKRMVVVYRAGFLNDNSSGSNKNSDKLIKDIEKYVPNVPKHCILVMYYVFDNTREKPSYRVKKFDKKVCVVEFSKLRGMQFQKKVKDVFAEKGKQIGKTELNYFCSRVENNMDIVYNEIEKLCCYTLEKEITKESIDNLLQPNETDDIFNLVDYISQSKPEMAITVLNEIMYKGVKANSILYMVERQFKLMLSIKIGIENKQSKEALVKELKLNPYVCDKMINECKRFTMKKILKSLDICLRTEKELKSVSGDPKFKMEVLIINLAIEGHHHHHH | soluble |
| MTAPTLAPIDPPARAQLLTDLQGAPDWDVIVIGGGATGLGTAVDAAARGYRTLLVEAADFAKGTSSKATKLVHGGVRYLAQGNISLVREALHERGLLNRNAPHLVWPLGFVVPAYSLLDQPFYGVGLKMYDMLAGKLNLAPSRWLSRGETLRHAATVAERVNGRALRGGILYYDGQFDDARLAIALMRTLYDLGGVALNYARAVGLTRTDGRVDGVTVADALGELRVTLRAKCVVNATGVWVDAVRRMDDPAAQTMVAPSQGVHLTLPRDFLPGEDAILIPKTDDGRVLFVVPWNGHTIVGTTDTPRTDLPLDPQAGQNEIDFILATAARYLSRKPTRADVTSVWAGLRPLVKATGEASTKSLSREHTIVVSKGGLVTVTGGKWTTYRKMAQDVVDTAIEHKLLAAAPCRTSELPLHGAPADGQPNGAPHGTPDSYYGTDLATLRALPGADRMLVKASALTEAHVRYAARHELARTVEDVLARRNRALFLDAEAALLAAPEVARILAQELGHDEAWSRATLAEFEAVAAHYRLALEHHHHHH | not soluble |
| MGSDKIHHHHHHMKIVVAKNIGFCFGVERAIRTVEELLDEGKKVVTDGEIVHNKQVMEQLTKKGLKVSSEMTDGEVFVVRAHGIPKDRLEELKKIFPEVVDLTCPIVSQLFKTAQRYAKERKVIVFGKEDHPEMVALRGYAPAIVTKVPFKLEEKKVVFLSQTTSSLEEYKEFVAAMIRMNEFEEAVFLNTICPVTVNREREVEELSKICDLSIVVGGKHSSNTGKLFRIASKHSKTIWIESPDELPADVVKYGTVCVFSGTSTPNSLIENVVRKLKEMEGKRDGTI | not soluble |
| MGSDKIHHHHHHMRLHSPSMSELHAFVAAARLGSFTRAADTLCVTQGAISRAIARLEEHFGQPLIQRNAHRLTLTGAGQQLLDAVAGPLAAIEHASAALRAGDRSHHLTLSAVPTLASVWLVPRLPDFHRRHPDIRLDFVPYRRDEDFSGAAPDAALLAGEPGKWPGLQVDYVVGREMVPVCHPDRARQRHAAGRWREPAELMDEPLLYHTTAPANWANWLQAAGVPNAAPKLSSGFDQVSILVQAVRADMGIAVLQRCLLHDELAAGRVVAPFDLPIRLQRGYFLCSPRERRDHHALRCFREWLLETAAQDSGT | not soluble |
| VPKLVDHDERRRSITAAAWRLIAARGIEAANMRDIATEAGYTNGALSHYFAGKDEILRTSYEHISEATDRRIAEALGDATGLDALRILCREVMPINEEQLLEARIAASLWPRAMYDEQMAATNRRTMDNWREQMAIFLEQAREEGSVGDIDVTIVVEQLLNMMMGMQILGVLTPGETSSERQLEMLEQFVAAL | soluble |
| MGSDKIHHHHHHMRNIPDQEEYFALLIEFDFEDFNDLPQNAGTSQNYVQGQLNPLLESALHQFIDFSLVAPPSAFKFRKRELLELIYYSGYTAIAKLNMNKSLSERVQTLISYHLSTELTAEFIAAQLFMSSSTLRRKLKSEGNSIQDIRNRVRLGHGLHLIQTTNNSIGNIAFECGYQSQSRFTEQFKNLFGITPRELRKTKMLT | not soluble |
| EAVIATDEMNVRSGPGLSYGITAEVKKGERYPILKEDGDWVQIQLGSGEKGWVVSWLITKEDQASTSSSGSSDTVTSTDPDLRMRSGPGTSYEVIGKFPQGSQASVIDKDSGWIKISYHSATGWVSSEYVTSGGSSSASDESDQTEDSGASTTGTVGVSSLNVRASASHDAAIITKLDRGTKLTVLNEKNGWAHIEVNGLKGWVASHYLLTSSVPADDSANAGSSSSAKKAYIMYGGTNLRSDASTSASIVERAAKGDSYTITGSKGSWYEIKLDNGQTAYVANWVVQTSKSAEEAGEPPVSDSPSGNGSLNNKTIIVDPGHGGKDSGTIGYSGKFEKNLTIKTAKLLASKLRSAGADVYVTRQDDTFVSLQSRVSTSHYRNADAFISIHYDSYADTSTRGSTAYYYSPAKDQELASDVHSEVVKRSSIPDRGVLFGDYYVLRENRQPAMLYELGYVSHPQEEAIVHSNSYQEKVTDGIESGLEKYF | not soluble |
| MDRRRFLVGLLGLGLARGQGLRVEEVVGGLEVPWALAFLPDGGMLIAERPGRIRLFREGRLSTYAELSVYHRGESGLLGLALHPRFPQEPYVYAYRTVAEGGLRNQVVRLRHLGERGVLDRVVLDGIPARPHGLHSGGRIAFGPDGMLYVTTGEVYERELAQDLASLGGKILRLTPEGEPAPGNPFLGRRGARPEVYSLGHRNPQGLAWHPKTGELFSSEHGPSGEQGYGHDEVNLIVPGGNYGWPRVVGRGNDPRYRDPLYFWPQGFPPGNLAFFRGDLYVAGLRGQALLRLVLEGERGRWRVLRVETALSGFGRLREVQVGPDGALYVTTSNRDGRGQVRPGDDRVLRLL | soluble |
| MGSDKIHHHHHHMLLREPDPMNVKEKQMQHTDDTRDIAGVQKPEAPSGRRALITGASSGLGIEFAELLAAQKMNLVLAARRKEPMEKLAEDLRRRHGVDILVEPIDLAAPGAAARLKDSLNERAIQIDILVNNAGYGLQGEFLKTPIERTTDMIQLNITALTELSYVFGRDMAARGSGEILLIASLLAFQPVPTYAAYAATKSYVLSFGEALHDELRTQGVVVTSLCPGHTETGFDAAAGAQVSPMLRLLTMKPRPVAEAGLEALAKGKASVIAGFMNKVVAFSTRLTPRSMQRASMRKVMVP | not soluble |
| MGSDKIHHHHHHMLEIIMSSIKSRQLTHSALASNIDIHDVTHFLLELDALKRVNRRSYVTGANRLENSAEHSWHLAMACWSIAELFELDVNQEKLLKMALVHDLGEIDAGDTFLYADTRGDAHLEERAGIARLQGERGNGISNLNEIWEEQETGSSTETQLLKVVDRLLPFLLNLNTNGKTWIELSVTRSQVSEAHAFIKDSFPSIHDWLAAQIEFATQQGWLIDT | not soluble |
| MWPTHDLPILSNKSLILRKLQIEDTPRLVELAQDPAMRNFTTIPSPFTVENALEFISSSSVPTDSLVRWAIATADKPSIYLGTIELRAQSPICVDIGYSLHPHARGLGIMPKAVRLVSNYALSVGFHRVEIKIRTSNVASRRATERARATFEGIAHKAELHRGSIYDLAIYSITS | not soluble |
| MNRGLDPMHVGNARYVKNDDLPKTVPVFPLPGALLLPEGHLPLNIFEPRYLAMIDTALASHRLIGMVQPALHVIEAGIEGGPLSAVGCLGRITSFSETGDGRYVISLTGVCRFRLLEEVAGSEPYRSFRHAPFGADLSGEYDEEAVDRENLLRVFRAFLDANQLEADWESVERAGNRVLVNSLSMMSPFGPAEKQALLEAPDLKTRAETLIAITEIVLAQGSGEGGTVLQLEHHHHHH | not soluble |
